These results are taken from patent US20200164026A1, “Intranasal Delivery of Cell Permeant Therapeutics” (The Trustees of Columbia University in the City of New York, priority 2010, published 2020).

Series [1] concerns Pen1-XBIR3 (Penetratin1 disulfide-linked to the BIR3 domain from XIAP).
For series [2], the system named is caspase-cleaved tau (caspase-6 substrate). Put plainly: Intranasal Pen1-C6DN prior to 1 hr tMCAo in mice; western blot for caspase-cleaved tau (anti-TauC3). The series is classed as in vivo, mouse. As to conditions: intranasal 1 hr prior to 1 hr tMCAo, 24 hpr. The text has this:
To determine if a direct blockade of caspase-6 would provide protection from ischemia, a Pen1-linked caspase-6 domininat negative (Pen1-C6DN) construct was utilized. Pen1-C6DN was delivered by intransasal bolus to mice 1 hr prior to tMCAo and mice were then subjected to 1 hrMCAo followed by reperfusion. Animals were sacrificed at 24 hpr and core and penumbra regions of brain prepared for Western blotting. As depicted in FIG. 7, protein lysate from the core and penumbra regions of the stroke infarct (24 hpr) was isolated. Ipsilateral (stroked) hemispheres contained abundant caspase-cleaved tau when only treated with vehicle.
Intranasal Pen1-C6DN Prevents Cleavage of Caspase-6 Substrates. Caspase-6 catalytic dominant negative (C6DN; C285A) was isolated and purified as described previously. Denault, J. B. and G. S. Salvesen, Expression, purification, and characterization of caspases. Curr Protoc Protein Sci, 2003. Chapter 21: p. Unit 21 13. Pen1 (Q-Biogene) was mixed at an equimolar ratio with purified C6DN and incubated overnight at 37° C. to generate disulfide-linked Pen1-C6DN. Linkage was assessed by 20% SDS-PAGE and Western blotting with anti-His and anti-Caspase-6 antibodies.
Male C57BL/6 mice (2-3 months old; ≥25 g) were anesthetized using isoflurane (2%) delivered via an anesthesia mask. […]

The target in series [3] is T1, Pen1-C6DN (Penetratin1 disulfide-linked to caspase-6 catalytic dominant negative, C285A).
T1 chain 1: RQIKIWFQNRRMKWKK
T1 chain 2: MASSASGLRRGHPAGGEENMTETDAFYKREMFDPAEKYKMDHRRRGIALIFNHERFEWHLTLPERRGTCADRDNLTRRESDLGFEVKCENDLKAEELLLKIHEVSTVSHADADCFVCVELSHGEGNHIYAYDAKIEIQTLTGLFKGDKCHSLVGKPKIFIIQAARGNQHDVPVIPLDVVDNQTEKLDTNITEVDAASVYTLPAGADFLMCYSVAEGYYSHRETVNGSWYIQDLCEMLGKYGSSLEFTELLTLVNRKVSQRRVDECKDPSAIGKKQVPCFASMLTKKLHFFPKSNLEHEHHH

Chain of Pen1-XBIR3 (Penetratin1 disulfide-linked to the BIR3 domain from XIAP) (chain, as listed by the source): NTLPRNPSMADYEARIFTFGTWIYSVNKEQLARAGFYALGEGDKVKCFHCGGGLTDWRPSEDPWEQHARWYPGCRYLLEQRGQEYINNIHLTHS

As for “caspase-9 (rat, endogenous in brain or hippocampal neurons)”, in series [1], the “C1-C6 processes (count of cleaved caspase-6 positive processes), intranasal delivery, 12 hpr” value is listed as “Vehicle-12 hpr: 144.0±28.50, n=3 vs. Pen1-XBIR3-12 hpr: 102.7±23.15, n=3; p=0.3233”; the “C1-C6 processes (count of cleaved caspase-6 positive processes), intranasal delivery, 24 hpr” value was “Vehicle-24 hpr: 109.7±12.73, n=3 vs. Pen1-XBIR3-24 hpr: 57.33±10.04, n=3; p=0.032”; the “immunostaining for caspase-9 and cleaved caspase-6 at 24 hpr after convection enhanced delivery to rat striatum” value was “Pent-XBIR3 inhibited appearance of c1-C6 and caspase-9 in cell bodies and processes”; the “immunostaining for cleaved caspase-6 and caspase-9 at 24 hpr (FIG. 3D)” value is “The caspase-9 specific inhibitor, Pen1-XBIR3, blocks the increase in caspase-9 and the induction of c1-C6 observed at 24 hpr”.

B1: Pen1-C6DN: Caspase-6 catalytic dominant negative (C6DN; C285A) disulfide-linked to Penetratin1 (SEQ ID NO: 11) (conjugate)
peptide: RQIKIWFQNRRMKWKK
chain: T1 chain 2
As for B1, in series [2], the “caspase-cleaved tau in core and penumbra lysate” value is on record as “reduced cleavage of caspase-cleaved tau”.

B2: caspase-6 (mouse, endogenous in brain) (protein)
chain: MTETDGFYKSREVFDPAEQYKMDHKRRGVALIFNHERFFWHLTLPERRGTNADRDNLTRRFSDLGFEVKCFNDLRAEELLLKIHEVSTSSHIDADCFICVFLSHGEGNHVYAYDAKIEIQTLTGLFKGDKCQSLVGKPKIFIIQACRGSQHDVPVVPLDMVDHQTDKLDNVTQVDAASVYTLPAGADFLMCYSVAEGYYSHRETVNGSWYIQDLCEMLARYGSSLEFTELLTLVNRKVSQRRVDFCKDPDAIGKKQVPCFASMLTKKLHFCPKPSK
Take B2: the “caspase-cleaved tau in mouse brain lysate at 24 hpr (western blot, anti-TauC3)” value in series [3] was “Pen1-C6DN reduced cleavage of caspase-cleaved tau”.
